Where a SMILES comes first, the peptide text is derived from it. [ ]: non-standard residue; d: D form. The star is where a group is joined. X1 = O=C(CCCCCCCn1cnc2c(Br)c(Br)c(Br)c(Br)c21)*

The record followed here is US9176064B2, “Bisubstrate fluorescent probes for protein kinase CK2” (University of Tartu, priority 2012, dated 2015).

Common to all, as to assay: Kinase panel residual activity
What all share (assay type): biochemical
What all share (conditions): compound at 1 micromolar

In data set [1] the target is PIM3 (Homo sapiens, UniProt Q86V86).
Data set [2] has as its target SRPK1 (Homo sapiens, UniProt Q96SB4).
Data set [3] addresses CDK9-Cyclin T1 (Homo sapiens, UniProt P50750).
Data set [4] deals with MAPKAP-K3 (Homo sapiens, UniProt Q16644).
The target of data set [5] is IR (Homo sapiens, UniProt P06213).
The target in data set [6] is MARK3 (Homo sapiens, UniProt P27448).
Data set [7] deals with T1, MAP4K3 (Homo sapiens, UniProt Q8IVH8).
T1 sequence (Q8IVH8 1-894): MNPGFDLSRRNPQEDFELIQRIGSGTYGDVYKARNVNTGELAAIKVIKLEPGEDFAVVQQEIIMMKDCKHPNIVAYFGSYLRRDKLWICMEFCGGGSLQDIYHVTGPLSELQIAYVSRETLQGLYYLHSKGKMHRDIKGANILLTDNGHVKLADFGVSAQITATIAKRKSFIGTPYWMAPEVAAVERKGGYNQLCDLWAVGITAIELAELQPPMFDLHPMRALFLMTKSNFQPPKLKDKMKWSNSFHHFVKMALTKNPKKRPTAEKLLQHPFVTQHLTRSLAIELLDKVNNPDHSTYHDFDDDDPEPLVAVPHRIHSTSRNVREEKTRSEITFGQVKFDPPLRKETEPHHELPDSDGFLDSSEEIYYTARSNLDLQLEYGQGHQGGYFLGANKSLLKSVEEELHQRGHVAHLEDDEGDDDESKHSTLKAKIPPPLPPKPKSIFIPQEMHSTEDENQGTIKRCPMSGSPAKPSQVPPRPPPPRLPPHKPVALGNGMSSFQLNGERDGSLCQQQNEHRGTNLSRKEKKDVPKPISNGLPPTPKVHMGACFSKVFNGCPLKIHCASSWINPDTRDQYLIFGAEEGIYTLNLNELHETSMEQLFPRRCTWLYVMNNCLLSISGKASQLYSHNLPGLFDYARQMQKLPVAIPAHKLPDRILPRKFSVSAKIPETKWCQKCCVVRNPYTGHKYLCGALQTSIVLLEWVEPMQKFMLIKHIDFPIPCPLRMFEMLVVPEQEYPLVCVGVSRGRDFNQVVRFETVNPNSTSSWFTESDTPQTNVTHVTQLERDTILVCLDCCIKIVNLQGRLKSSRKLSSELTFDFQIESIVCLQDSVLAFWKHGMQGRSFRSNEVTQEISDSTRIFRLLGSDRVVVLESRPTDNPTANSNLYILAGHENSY

Data set [8] has as its target WNK1 (Homo sapiens, UniProt Q9H4A3).
The target in data set [9] is CSK (Homo sapiens, UniProt P41240).
For data set [10], the target named is PKA (Homo sapiens, UniProt P17612).
In data set [11] the target is MKK1 (Homo sapiens, UniProt Q02750).
Data set [12] has as its target T2, ULK2 (Homo sapiens, UniProt Q8IYT8).
T2 sequence (Q8IYT8 1-1036): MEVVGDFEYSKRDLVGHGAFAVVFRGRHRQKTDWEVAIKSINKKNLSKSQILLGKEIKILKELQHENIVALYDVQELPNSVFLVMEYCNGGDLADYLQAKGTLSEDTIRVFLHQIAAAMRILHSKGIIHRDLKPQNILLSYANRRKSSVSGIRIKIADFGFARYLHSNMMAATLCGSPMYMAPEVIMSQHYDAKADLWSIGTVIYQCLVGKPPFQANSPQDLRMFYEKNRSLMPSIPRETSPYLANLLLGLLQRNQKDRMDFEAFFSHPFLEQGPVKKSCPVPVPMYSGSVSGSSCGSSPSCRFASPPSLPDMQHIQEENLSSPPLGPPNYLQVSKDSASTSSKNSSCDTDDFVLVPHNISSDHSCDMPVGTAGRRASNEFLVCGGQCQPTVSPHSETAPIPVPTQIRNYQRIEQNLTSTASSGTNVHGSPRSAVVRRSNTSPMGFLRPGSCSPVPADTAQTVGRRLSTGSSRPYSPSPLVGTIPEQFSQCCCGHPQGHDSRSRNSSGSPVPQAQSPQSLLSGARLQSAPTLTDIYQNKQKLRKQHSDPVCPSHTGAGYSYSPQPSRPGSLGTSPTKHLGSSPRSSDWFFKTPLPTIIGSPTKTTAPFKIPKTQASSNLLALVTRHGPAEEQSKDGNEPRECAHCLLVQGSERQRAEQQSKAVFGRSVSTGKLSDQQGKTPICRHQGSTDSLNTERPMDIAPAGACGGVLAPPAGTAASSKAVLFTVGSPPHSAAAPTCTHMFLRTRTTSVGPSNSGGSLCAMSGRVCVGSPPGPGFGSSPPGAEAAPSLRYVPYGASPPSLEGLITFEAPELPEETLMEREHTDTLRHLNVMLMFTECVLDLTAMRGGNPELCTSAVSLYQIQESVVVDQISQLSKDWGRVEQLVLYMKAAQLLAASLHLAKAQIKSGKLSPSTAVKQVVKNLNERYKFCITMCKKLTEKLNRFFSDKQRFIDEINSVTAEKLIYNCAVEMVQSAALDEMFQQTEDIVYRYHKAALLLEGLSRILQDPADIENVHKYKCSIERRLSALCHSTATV

Sequence of SRPK1 (Q96SB4 whole entry, species assumed): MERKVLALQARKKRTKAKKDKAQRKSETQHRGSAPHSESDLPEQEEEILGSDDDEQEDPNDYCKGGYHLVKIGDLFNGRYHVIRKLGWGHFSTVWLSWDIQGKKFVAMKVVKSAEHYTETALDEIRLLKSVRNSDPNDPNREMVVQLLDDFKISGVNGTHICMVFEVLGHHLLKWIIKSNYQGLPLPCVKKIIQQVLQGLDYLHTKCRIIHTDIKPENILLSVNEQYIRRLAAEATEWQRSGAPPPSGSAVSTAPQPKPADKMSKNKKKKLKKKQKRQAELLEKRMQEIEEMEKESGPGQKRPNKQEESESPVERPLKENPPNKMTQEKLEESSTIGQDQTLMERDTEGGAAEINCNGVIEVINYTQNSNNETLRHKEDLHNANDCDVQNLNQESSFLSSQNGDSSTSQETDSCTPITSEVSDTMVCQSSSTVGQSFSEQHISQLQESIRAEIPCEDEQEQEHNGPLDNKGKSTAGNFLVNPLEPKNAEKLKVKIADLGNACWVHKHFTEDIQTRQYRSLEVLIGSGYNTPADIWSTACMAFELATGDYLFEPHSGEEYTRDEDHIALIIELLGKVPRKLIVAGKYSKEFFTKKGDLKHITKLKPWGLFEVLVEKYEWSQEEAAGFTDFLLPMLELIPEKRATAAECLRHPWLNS
Sequence of CSK (P41240 whole entry, species assumed): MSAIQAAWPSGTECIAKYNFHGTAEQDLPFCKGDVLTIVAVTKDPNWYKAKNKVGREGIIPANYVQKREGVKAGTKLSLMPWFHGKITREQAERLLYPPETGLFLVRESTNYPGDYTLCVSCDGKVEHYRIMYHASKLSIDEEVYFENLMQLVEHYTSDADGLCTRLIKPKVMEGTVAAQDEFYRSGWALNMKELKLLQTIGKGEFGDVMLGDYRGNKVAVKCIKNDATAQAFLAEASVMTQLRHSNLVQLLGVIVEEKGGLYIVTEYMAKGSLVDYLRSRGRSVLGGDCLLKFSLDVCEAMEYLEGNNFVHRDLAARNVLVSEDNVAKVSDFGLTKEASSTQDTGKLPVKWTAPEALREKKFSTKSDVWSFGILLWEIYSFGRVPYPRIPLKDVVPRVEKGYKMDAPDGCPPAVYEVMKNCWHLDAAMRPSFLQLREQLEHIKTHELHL
Sequence of MKK1 (Q02750 whole entry, species assumed): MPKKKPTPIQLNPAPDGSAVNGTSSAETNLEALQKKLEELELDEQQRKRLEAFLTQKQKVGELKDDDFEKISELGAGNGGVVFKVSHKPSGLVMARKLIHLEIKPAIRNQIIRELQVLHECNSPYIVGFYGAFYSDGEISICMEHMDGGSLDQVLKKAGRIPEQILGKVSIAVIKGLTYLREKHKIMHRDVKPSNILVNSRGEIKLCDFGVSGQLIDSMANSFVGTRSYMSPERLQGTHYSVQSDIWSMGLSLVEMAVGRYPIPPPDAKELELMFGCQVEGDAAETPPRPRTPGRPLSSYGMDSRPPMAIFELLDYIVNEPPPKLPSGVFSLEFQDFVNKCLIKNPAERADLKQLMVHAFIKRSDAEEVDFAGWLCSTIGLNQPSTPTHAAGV
Sequence of MAPKAP-K3 (Q16644 whole entry, species assumed): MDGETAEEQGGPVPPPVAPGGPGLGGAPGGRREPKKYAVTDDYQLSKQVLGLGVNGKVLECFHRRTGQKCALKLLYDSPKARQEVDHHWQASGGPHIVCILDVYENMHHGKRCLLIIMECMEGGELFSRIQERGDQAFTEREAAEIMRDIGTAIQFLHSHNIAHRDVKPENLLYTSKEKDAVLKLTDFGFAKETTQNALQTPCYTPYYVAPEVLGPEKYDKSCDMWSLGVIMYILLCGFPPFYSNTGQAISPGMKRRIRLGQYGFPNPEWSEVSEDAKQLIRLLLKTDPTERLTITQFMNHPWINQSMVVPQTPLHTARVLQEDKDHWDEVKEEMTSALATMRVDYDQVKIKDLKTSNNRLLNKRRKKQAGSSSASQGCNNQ
Sequence of IR (P06213 28-1382): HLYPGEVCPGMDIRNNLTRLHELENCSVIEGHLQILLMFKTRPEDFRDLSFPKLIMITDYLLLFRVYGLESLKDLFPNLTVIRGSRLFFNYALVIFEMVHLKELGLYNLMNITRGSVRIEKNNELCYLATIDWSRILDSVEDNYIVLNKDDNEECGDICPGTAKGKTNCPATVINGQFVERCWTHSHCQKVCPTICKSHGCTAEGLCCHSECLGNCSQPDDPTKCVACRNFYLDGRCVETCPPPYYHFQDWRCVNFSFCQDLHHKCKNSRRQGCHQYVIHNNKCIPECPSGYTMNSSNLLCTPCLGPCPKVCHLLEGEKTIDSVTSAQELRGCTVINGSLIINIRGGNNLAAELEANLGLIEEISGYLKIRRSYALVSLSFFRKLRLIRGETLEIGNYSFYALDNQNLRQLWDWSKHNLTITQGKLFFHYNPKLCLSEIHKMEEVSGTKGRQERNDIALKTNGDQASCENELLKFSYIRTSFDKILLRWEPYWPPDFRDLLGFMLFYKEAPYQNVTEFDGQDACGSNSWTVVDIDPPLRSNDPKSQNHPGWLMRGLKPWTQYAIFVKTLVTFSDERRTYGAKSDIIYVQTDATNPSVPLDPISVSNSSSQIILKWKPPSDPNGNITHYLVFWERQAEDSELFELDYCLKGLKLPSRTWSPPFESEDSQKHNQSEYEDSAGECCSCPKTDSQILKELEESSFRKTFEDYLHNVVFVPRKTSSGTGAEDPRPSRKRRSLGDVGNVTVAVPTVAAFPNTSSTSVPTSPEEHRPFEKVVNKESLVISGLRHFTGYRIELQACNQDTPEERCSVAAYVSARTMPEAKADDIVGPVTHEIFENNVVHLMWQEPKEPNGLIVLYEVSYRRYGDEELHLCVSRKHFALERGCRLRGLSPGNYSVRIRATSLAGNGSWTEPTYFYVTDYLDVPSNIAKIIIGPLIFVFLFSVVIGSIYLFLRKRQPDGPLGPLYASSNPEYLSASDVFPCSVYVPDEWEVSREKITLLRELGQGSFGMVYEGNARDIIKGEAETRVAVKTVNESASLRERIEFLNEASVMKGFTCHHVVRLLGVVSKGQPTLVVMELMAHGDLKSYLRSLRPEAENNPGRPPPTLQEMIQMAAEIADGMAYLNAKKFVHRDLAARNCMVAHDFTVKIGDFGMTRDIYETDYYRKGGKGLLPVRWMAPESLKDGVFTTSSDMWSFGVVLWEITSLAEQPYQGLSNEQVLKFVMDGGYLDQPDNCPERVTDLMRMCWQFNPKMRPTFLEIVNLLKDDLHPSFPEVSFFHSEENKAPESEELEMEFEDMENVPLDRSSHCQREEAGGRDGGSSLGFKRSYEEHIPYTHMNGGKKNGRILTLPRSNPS
Sequence of MARK3 (P27448 whole entry, species assumed): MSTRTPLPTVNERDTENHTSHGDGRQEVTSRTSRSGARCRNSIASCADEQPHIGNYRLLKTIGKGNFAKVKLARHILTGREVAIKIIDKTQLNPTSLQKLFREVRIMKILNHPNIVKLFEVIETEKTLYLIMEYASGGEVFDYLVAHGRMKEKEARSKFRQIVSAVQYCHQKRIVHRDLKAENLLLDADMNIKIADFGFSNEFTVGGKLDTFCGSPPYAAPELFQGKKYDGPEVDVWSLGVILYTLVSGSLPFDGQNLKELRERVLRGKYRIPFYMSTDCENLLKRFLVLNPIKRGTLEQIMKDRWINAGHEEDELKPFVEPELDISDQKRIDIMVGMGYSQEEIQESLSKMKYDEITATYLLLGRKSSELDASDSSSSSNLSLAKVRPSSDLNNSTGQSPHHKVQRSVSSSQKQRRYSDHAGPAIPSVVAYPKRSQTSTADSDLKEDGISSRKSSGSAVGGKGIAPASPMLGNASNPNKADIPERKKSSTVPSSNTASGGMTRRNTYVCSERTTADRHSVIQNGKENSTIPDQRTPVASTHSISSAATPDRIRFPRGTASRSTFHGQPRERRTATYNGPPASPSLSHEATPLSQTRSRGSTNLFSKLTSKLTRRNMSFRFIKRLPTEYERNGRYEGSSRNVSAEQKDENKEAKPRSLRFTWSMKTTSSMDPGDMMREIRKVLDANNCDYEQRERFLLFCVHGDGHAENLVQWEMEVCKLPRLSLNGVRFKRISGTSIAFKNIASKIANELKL

As usually defined, the remaining activity is the signal under treatment as a percentage of the control signal. As to `NCCCC[C@H](NC(=O)[C@H](CC(=O)O)NC(=O)[C@H](CC(=O)O)NC(=O)[C@H](CC(=O)O)NC(=O)[C@H](CC(=O)O)NC(=O)[C@H](CC(=O)O)NC(=O)[C@@H](CC(=O)O)NC(=O)CCCCCCCn1cnc2c(Br)c(Br)c(Br)c(Br)c21)C(=O)O` [TBBI-OcA-(D-Asp)-(L-Asp)5-(L-Lys)-OH] (X1-[dD]DDDDDK-OH), the remaining activity at 1 µM in data set [1] turned out to be 59%; in data set [2], 61%; in data set [3], 65%; in [4], 69%; in data set [5], 70%; in data set [6] it was 73%. Moreover, the remaining activity at 1 µM in [7] stood at 86%; in data set [8], 88%; in data set [9] it was 92%; in data set [10], 100%; in data set [11] it was 101%; in [12], 110%.
